# T1: Hfq (Bacillus subtilis, UniProt O31796 1-73)
# T1 sequence: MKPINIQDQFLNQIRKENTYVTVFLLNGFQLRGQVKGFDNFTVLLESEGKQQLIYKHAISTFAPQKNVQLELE
# B1: SR4 antitoxin RNA (structured_RNA)
# RNA: GGGUAAUGAUACAAUUAUAUAAUUAUUUUUUGCAUUUUGUUUAAUUAAAUGCAAAGCUGCCCAUCAAAGGGCUUGCUCGUUGUCAAAUCUUAAAAUAAAAAGACCAGGGUGUUGGUAGCACCCUGGCUCUGUACAAGCGUAGGCCUAACCCUUCAGGUGUCCAAACUCAAGGGAAGGUCUAUUUUUU
# Target: T1, Hfq
# Assay: EMSA; 10 mM Mg2+, 2.5 ng/ul yeast tRNA; 50 mM Hepes pH 7.5, 150 mM NaCl, 10 mM MgCl2, 2.5 ng/ul yeast tRNA, ~2 fmol RNA in 10 ul, 30 min at 25 C; 5% native TBE PAGE
# Conditions: protein: recombinant; tags: His6 (pHisII vector); chain copies: 6; label: 32P (gamma-32P ATP)
binder,measurement,value
B1,binding result,binds

# — article PMC3574147, “Association of RNAs with Bacillus subtilis Hfq”
